Source: patent US12679878B2, “CRF2 receptor agonists and their use in therapy” (SANOFI, priority 2020, dated 2026)
Starred links: 1 amine or outer side, 2 acyl side, 3 side chain; linkers in the order of their positions; H or OH if unused. Non-standard residues stand in square brackets, D forms with d. Groups on a side chain read outwards from the residue. No end group written: not given here. *: point of attachment. C18 diacid = O=C(O)CCCCCCCCCCCCCCCCC(=O)*; γGlu = O=C(O)[C@H](CCC(=O)[*:2])N[*:1]; AEEA = NCCOCCOCC(=O)O; Aib = CC(C)(N)C(=O)O

Target: human corticotropin-releasing factor 2α (CRF2 α receptor) (human), Q13324
Assay: cell-based or functional assay

human corticotropin-releasing factor 2α (CRF2 α receptor) (human), Q13324, sequence (Q13324 20-411): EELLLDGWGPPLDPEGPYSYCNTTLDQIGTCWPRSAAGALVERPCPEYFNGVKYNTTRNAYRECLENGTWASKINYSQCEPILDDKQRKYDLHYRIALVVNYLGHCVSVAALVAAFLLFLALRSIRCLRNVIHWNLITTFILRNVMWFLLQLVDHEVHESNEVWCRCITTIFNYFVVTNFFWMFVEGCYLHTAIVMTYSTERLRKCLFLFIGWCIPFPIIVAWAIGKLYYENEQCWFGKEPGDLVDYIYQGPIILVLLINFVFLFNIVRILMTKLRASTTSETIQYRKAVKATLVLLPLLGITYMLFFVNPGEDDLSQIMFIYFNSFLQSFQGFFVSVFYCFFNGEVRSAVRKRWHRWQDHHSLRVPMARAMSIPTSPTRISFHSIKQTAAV

Row | Binder | EC50 [nM], 0% HSA | EC50 [nM], 0.1% HSA
1 | IVLSLD[dV]PIKLK([AEEA-AEEA-γGlu-C18 diacid])QILLEQERQK[Aib]QRQQAEKNKQILAQV-NH2 (N-terminus assumed; SMILES CC[C@H](C)[C@H](N)C(=O)N[C@H](C(=O)N[C@@H](CC(C)C)C(=O)N[C@@H](CO)C(=O)N[C@@H](CC(C)C)C(=O)N[C@@H](CC(=O)O)C(=O)N[C@@H](C(=O)N1CCC[C@H]1C(=O)N[C@H](C(=O)N[C@@H](CCCCN)C(=O)N[C@@H](CC(C)C)C(=O)N[C@@H](CCCCNC(=O)COCCOCCNC(=O)COCCOCCNC(=O)CC[C@H](NC(=O)CCCCCCCCCCCCCCCCC(=O)O)C(=O)O)C(=O)N[C@@H](CCC(N)=O)C(=O)N[C@H](C(=O)N[C@@H](CC(C)C)C(=O)N[C@@H](CC(C)C)C(=O)N[C@@H](CCC(=O)O)C(=O)N[C@@H](CCC(N)=O)C(=O)N[C@@H](CCC(=O)O)C(=O)N[C@@H](CCCNC(=N)N)C(=O)N[C@@H](CCC(N)=O)C(=O)N[C@@H](CCCCN)C(=O)NC(C)(C)C(=O)N[C@@H](CCC(N)=O)C(=O)N[C@@H](CCCNC(=N)N)C(=O)N[C@@H](CCC(N)=O)C(=O)N[C@@H](CCC(N)=O)C(=O)N[C@@H](C)C(=O)N[C@@H](CCC(=O)O)C(=O)N[C@@H](CCCCN)C(=O)N[C@@H](CC(N)=O)C(=O)N[C@@H](CCCCN)C(=O)N[C@@H](CCC(N)=O)C(=O)N[C@H](C(=O)N[C@@H](CC(C)C)C(=O)N[C@@H](C)C(=O)N[C@@H](CCC(N)=O)C(=O)N[C@H](C(N)=O)C(C)C)[C@@H](C)CC)[C@@H](C)CC)[C@@H](C)CC)C(C)C)C(C)C) [SEQ ID NO: 131] | 0.11 nM | 2.44 nM
2 | IVLSLD[dV]PIKLK([AEEA-AEEA-γGlu-C18 diacid])QILLEQERQK[Aib]QREQAEKNKQILERV-NH2 (N-terminus assumed; SMILES CC[C@H](C)[C@H](N)C(=O)N[C@H](C(=O)N[C@@H](CC(C)C)C(=O)N[C@@H](CO)C(=O)N[C@@H](CC(C)C)C(=O)N[C@@H](CC(=O)O)C(=O)N[C@@H](C(=O)N1CCC[C@H]1C(=O)N[C@H](C(=O)N[C@@H](CCCCN)C(=O)N[C@@H](CC(C)C)C(=O)N[C@@H](CCCCNC(=O)COCCOCCNC(=O)COCCOCCNC(=O)CC[C@H](NC(=O)CCCCCCCCCCCCCCCCC(=O)O)C(=O)O)C(=O)N[C@@H](CCC(N)=O)C(=O)N[C@H](C(=O)N[C@@H](CC(C)C)C(=O)N[C@@H](CC(C)C)C(=O)N[C@@H](CCC(=O)O)C(=O)N[C@@H](CCC(N)=O)C(=O)N[C@@H](CCC(=O)O)C(=O)N[C@@H](CCCNC(=N)N)C(=O)N[C@@H](CCC(N)=O)C(=O)N[C@@H](CCCCN)C(=O)NC(C)(C)C(=O)N[C@@H](CCC(N)=O)C(=O)N[C@@H](CCCNC(=N)N)C(=O)N[C@@H](CCC(=O)O)C(=O)N[C@@H](CCC(N)=O)C(=O)N[C@@H](C)C(=O)N[C@@H](CCC(=O)O)C(=O)N[C@@H](CCCCN)C(=O)N[C@@H](CC(N)=O)C(=O)N[C@@H](CCCCN)C(=O)N[C@@H](CCC(N)=O)C(=O)N[C@H](C(=O)N[C@@H](CC(C)C)C(=O)N[C@@H](CCC(=O)O)C(=O)N[C@@H](CCCNC(=N)N)C(=O)N[C@H](C(N)=O)C(C)C)[C@@H](C)CC)[C@@H](C)CC)[C@@H](C)CC)C(C)C)C(C)C) [SEQ ID NO: 132] | 0.38 nM | 8.76 nM
3 | IVLSLD[dV]PIKLK([AEEA-AEEA-γGlu-C18 diacid])QILLKQERQK[Aib]QREQAEKNKQILERV-NH2 (N-terminus assumed; SMILES CC[C@H](C)[C@H](N)C(=O)N[C@H](C(=O)N[C@@H](CC(C)C)C(=O)N[C@@H](CO)C(=O)N[C@@H](CC(C)C)C(=O)N[C@@H](CC(=O)O)C(=O)N[C@@H](C(=O)N1CCC[C@H]1C(=O)N[C@H](C(=O)N[C@@H](CCCCN)C(=O)N[C@@H](CC(C)C)C(=O)N[C@@H](CCCCNC(=O)COCCOCCNC(=O)COCCOCCNC(=O)CC[C@H](NC(=O)CCCCCCCCCCCCCCCCC(=O)O)C(=O)O)C(=O)N[C@@H](CCC(N)=O)C(=O)N[C@H](C(=O)N[C@@H](CC(C)C)C(=O)N[C@@H](CC(C)C)C(=O)N[C@@H](CCCCN)C(=O)N[C@@H](CCC(N)=O)C(=O)N[C@@H](CCC(=O)O)C(=O)N[C@@H](CCCNC(=N)N)C(=O)N[C@@H](CCC(N)=O)C(=O)N[C@@H](CCCCN)C(=O)NC(C)(C)C(=O)N[C@@H](CCC(N)=O)C(=O)N[C@@H](CCCNC(=N)N)C(=O)N[C@@H](CCC(=O)O)C(=O)N[C@@H](CCC(N)=O)C(=O)N[C@@H](C)C(=O)N[C@@H](CCC(=O)O)C(=O)N[C@@H](CCCCN)C(=O)N[C@@H](CC(N)=O)C(=O)N[C@@H](CCCCN)C(=O)N[C@@H](CCC(N)=O)C(=O)N[C@H](C(=O)N[C@@H](CC(C)C)C(=O)N[C@@H](CCC(=O)O)C(=O)N[C@@H](CCCNC(=N)N)C(=O)N[C@H](C(N)=O)C(C)C)[C@@H](C)CC)[C@@H](C)CC)[C@@H](C)CC)C(C)C)C(C)C) [SEQ ID NO: 133] | 0.09 nM | 3.19 nM
4 | IVLSLD[dV]PIKLK([AEEA-AEEA-γGlu-C18 diacid])QILLKQERQK[Aib]QREKAEKNKQILAQV-NH2 (N-terminus assumed; SMILES CC[C@H](C)[C@H](N)C(=O)N[C@H](C(=O)N[C@@H](CC(C)C)C(=O)N[C@@H](CO)C(=O)N[C@@H](CC(C)C)C(=O)N[C@@H](CC(=O)O)C(=O)N[C@@H](C(=O)N1CCC[C@H]1C(=O)N[C@H](C(=O)N[C@@H](CCCCN)C(=O)N[C@@H](CC(C)C)C(=O)N[C@@H](CCCCNC(=O)COCCOCCNC(=O)COCCOCCNC(=O)CC[C@H](NC(=O)CCCCCCCCCCCCCCCCC(=O)O)C(=O)O)C(=O)N[C@@H](CCC(N)=O)C(=O)N[C@H](C(=O)N[C@@H](CC(C)C)C(=O)N[C@@H](CC(C)C)C(=O)N[C@@H](CCCCN)C(=O)N[C@@H](CCC(N)=O)C(=O)N[C@@H](CCC(=O)O)C(=O)N[C@@H](CCCNC(=N)N)C(=O)N[C@@H](CCC(N)=O)C(=O)N[C@@H](CCCCN)C(=O)NC(C)(C)C(=O)N[C@@H](CCC(N)=O)C(=O)N[C@@H](CCCNC(=N)N)C(=O)N[C@@H](CCC(=O)O)C(=O)N[C@@H](CCCCN)C(=O)N[C@@H](C)C(=O)N[C@@H](CCC(=O)O)C(=O)N[C@@H](CCCCN)C(=O)N[C@@H](CC(N)=O)C(=O)N[C@@H](CCCCN)C(=O)N[C@@H](CCC(N)=O)C(=O)N[C@H](C(=O)N[C@@H](CC(C)C)C(=O)N[C@@H](C)C(=O)N[C@@H](CCC(N)=O)C(=O)N[C@H](C(N)=O)C(C)C)[C@@H](C)CC)[C@@H](C)CC)[C@@H](C)CC)C(C)C)C(C)C) [SEQ ID NO: 134] | 0.07 nM | 3.44 nM
5 | IVLSLD[dV]PIKLK([AEEA-AEEA-γGlu-C18 diacid])QILLKQERQK[Aib]QRQQAEKNKQILAQV-NH2 (N-terminus assumed; SMILES CC[C@H](C)[C@H](N)C(=O)N[C@H](C(=O)N[C@@H](CC(C)C)C(=O)N[C@@H](CO)C(=O)N[C@@H](CC(C)C)C(=O)N[C@@H](CC(=O)O)C(=O)N[C@@H](C(=O)N1CCC[C@H]1C(=O)N[C@H](C(=O)N[C@@H](CCCCN)C(=O)N[C@@H](CC(C)C)C(=O)N[C@@H](CCCCNC(=O)COCCOCCNC(=O)COCCOCCNC(=O)CC[C@H](NC(=O)CCCCCCCCCCCCCCCCC(=O)O)C(=O)O)C(=O)N[C@@H](CCC(N)=O)C(=O)N[C@H](C(=O)N[C@@H](CC(C)C)C(=O)N[C@@H](CC(C)C)C(=O)N[C@@H](CCCCN)C(=O)N[C@@H](CCC(N)=O)C(=O)N[C@@H](CCC(=O)O)C(=O)N[C@@H](CCCNC(=N)N)C(=O)N[C@@H](CCC(N)=O)C(=O)N[C@@H](CCCCN)C(=O)NC(C)(C)C(=O)N[C@@H](CCC(N)=O)C(=O)N[C@@H](CCCNC(=N)N)C(=O)N[C@@H](CCC(N)=O)C(=O)N[C@@H](CCC(N)=O)C(=O)N[C@@H](C)C(=O)N[C@@H](CCC(=O)O)C(=O)N[C@@H](CCCCN)C(=O)N[C@@H](CC(N)=O)C(=O)N[C@@H](CCCCN)C(=O)N[C@@H](CCC(N)=O)C(=O)N[C@H](C(=O)N[C@@H](CC(C)C)C(=O)N[C@@H](C)C(=O)N[C@@H](CCC(N)=O)C(=O)N[C@H](C(N)=O)C(C)C)[C@@H](C)CC)[C@@H](C)CC)[C@@H](C)CC)C(C)C)C(C)C) [SEQ ID NO: 135] | 0.04 nM | 1.48 nM
6 | IVLSLD[dV]PIKLK([AEEA-AEEA-γGlu-C18 diacid])QILLKQERQKK[Aib]RQKAEKNKQILAQV-NH2 (N-terminus assumed; SMILES CC[C@H](C)[C@H](N)C(=O)N[C@H](C(=O)N[C@@H](CC(C)C)C(=O)N[C@@H](CO)C(=O)N[C@@H](CC(C)C)C(=O)N[C@@H](CC(=O)O)C(=O)N[C@@H](C(=O)N1CCC[C@H]1C(=O)N[C@H](C(=O)N[C@@H](CCCCN)C(=O)N[C@@H](CC(C)C)C(=O)N[C@@H](CCCCNC(=O)COCCOCCNC(=O)COCCOCCNC(=O)CC[C@H](NC(=O)CCCCCCCCCCCCCCCCC(=O)O)C(=O)O)C(=O)N[C@@H](CCC(N)=O)C(=O)N[C@H](C(=O)N[C@@H](CC(C)C)C(=O)N[C@@H](CC(C)C)C(=O)N[C@@H](CCCCN)C(=O)N[C@@H](CCC(N)=O)C(=O)N[C@@H](CCC(=O)O)C(=O)N[C@@H](CCCNC(=N)N)C(=O)N[C@@H](CCC(N)=O)C(=O)N[C@@H](CCCCN)C(=O)N[C@@H](CCCCN)C(=O)NC(C)(C)C(=O)N[C@@H](CCCNC(=N)N)C(=O)N[C@@H](CCC(N)=O)C(=O)N[C@@H](CCCCN)C(=O)N[C@@H](C)C(=O)N[C@@H](CCC(=O)O)C(=O)N[C@@H](CCCCN)C(=O)N[C@@H](CC(N)=O)C(=O)N[C@@H](CCCCN)C(=O)N[C@@H](CCC(N)=O)C(=O)N[C@H](C(=O)N[C@@H](CC(C)C)C(=O)N[C@@H](C)C(=O)N[C@@H](CCC(N)=O)C(=O)N[C@H](C(N)=O)C(C)C)[C@@H](C)CC)[C@@H](C)CC)[C@@H](C)CC)C(C)C)C(C)C) [SEQ ID NO: 136] | 0.05 nM | 2.41 nM
